This is an account of results in patent publication US6887471.

The IC50 is the concentration that gives 50% inhibition.

For test [1], the target named is B7 Ig fusion protein (human) [IgG part: P01857]. Description: solid phase competition: 125I-B7 Ig binding to immobilized CTLA4 Ig.
For test [2], the target named is B7 antigen (B7/BB-1, B7-1) on the cell surface (human) (UniProt P33681). Description: cell-based or functional assay.
The target of another test is T1, B7 Ig fusion protein (human, UniProt P01857-1 99-330 = IgG part, limits assumed, 125I label in the solid phase binding assays).
T1 construct: domain: hinge, CH2 and CH3 regions; Made as in Linsley et al. 1991; also called B7IgCγ1
Description: FACS, indirect immunostaining of transfected COS cells. For orientation: In flow cytometry, cells or beads pass a laser one at a time.

Regarding “murine monoclonal antibody BB-1 (anti-B7 antigen)”, the IC50 in test [1] was 22 nM. In addition, the inhibition of Th-induced IgM production in test [2] turned out to be 65%.

B1: CD7 expressed on transfected COS cells (receptor, UniProt P09564 26-240, looked up)
chain: AQEVQQSPHCTTVPVGASVNITCSTSGGLRGIYLRQLGPQPQDIIYYEDGVVPTTDRRFRGRIDFSGSQDNLTITMHRLQLSDTGTYTCQAITEVNVYGSGTLVLVTEEQSQGWHRCSDAPPRASALPAPPTGSALPDPQTASALPDPPAASALPAALAVISFLLGLGLGVACVLARTQIKKLCSWRDKNSAACVVYEDMSHSRCNTLSSPNQYQ
notes: whole, on cells; Control transfectant; also called CD7-transfected COS cells
For B1, the binding result in the test with B7 Ig fusion protein was “no binding (tested: 10 µg/ml)”.
